Biological target: rVP35 wt (Zaire ebolavirus) (UniProt Q05127)
Chain of UniProt Q05127 (Q05127 whole entry): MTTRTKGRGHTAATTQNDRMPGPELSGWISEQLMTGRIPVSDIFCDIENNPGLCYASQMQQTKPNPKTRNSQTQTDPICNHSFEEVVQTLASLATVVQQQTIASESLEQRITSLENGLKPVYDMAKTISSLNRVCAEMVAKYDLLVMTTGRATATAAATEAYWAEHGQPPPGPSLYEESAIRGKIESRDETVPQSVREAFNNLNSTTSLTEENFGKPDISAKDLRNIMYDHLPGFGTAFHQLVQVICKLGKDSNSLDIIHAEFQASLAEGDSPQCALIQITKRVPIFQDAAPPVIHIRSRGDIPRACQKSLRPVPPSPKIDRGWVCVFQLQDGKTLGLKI

Row | Substance | Kd [nM]
1 | IVT 50 bp dsRNA | 3.2
2 | IVT 150 bp dsRNA | 2.4
3 | IVT 500 bp dsRNA | 2.8
